Reference: patent publication US20150126713A1

Legend:
[1] = target: human IL-23R-mouse Fc fusion protein (human; mouse) (UniProt Q5VWK5); assay: antigen ELISA, human IL-23R-mouse Fc immobilized, HRP anti-human IgG, chemiluminescence
[2] = target: human IL-23R on Kit-225 cells (human) (UniProt Q5VWK5); assay: cell-based or functional assay
[3] = target: monkey IL-23R-mouse Fc fusion protein (monkey; mouse); assay: antigen ELISA, monkey IL-23R-mouse Fc immobilized, HRP anti-human IgG, chemiluminescence

Chain of human IL-23R-mouse Fc fusion protein (human; mouse) (Q5VWK5 24-353 L310P limits assumed): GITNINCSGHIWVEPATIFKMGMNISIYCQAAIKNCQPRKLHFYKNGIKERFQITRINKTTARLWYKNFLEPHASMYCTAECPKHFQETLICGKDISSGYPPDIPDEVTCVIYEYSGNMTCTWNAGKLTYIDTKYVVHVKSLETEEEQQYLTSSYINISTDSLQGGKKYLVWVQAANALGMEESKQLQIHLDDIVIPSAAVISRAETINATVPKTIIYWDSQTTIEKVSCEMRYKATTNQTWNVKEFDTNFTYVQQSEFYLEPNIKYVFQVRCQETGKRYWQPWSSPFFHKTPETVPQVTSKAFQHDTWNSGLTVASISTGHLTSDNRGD
Chain of human IL-23R on Kit-225 cells (human) (Q5VWK5 24-629 L310P limits assumed): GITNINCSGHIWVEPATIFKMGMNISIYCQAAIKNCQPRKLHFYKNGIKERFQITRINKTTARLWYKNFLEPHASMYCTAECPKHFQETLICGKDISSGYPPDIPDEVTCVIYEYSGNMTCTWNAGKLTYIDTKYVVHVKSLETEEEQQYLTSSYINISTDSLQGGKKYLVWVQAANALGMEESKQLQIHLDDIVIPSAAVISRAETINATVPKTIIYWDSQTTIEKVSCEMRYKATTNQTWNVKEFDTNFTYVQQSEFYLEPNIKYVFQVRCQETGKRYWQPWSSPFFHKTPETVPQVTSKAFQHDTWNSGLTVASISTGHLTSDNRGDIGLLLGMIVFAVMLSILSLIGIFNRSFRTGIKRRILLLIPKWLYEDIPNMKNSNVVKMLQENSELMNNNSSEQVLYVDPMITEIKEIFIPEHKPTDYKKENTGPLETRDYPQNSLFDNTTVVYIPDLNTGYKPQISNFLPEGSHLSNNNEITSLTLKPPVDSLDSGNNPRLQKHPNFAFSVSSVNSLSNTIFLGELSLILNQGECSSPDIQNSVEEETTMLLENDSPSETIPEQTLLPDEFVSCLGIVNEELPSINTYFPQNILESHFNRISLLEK

EC50 [1]: 0.0452 µg/mL
Human IL-23-inducible Kit-225 cell proliferation inhibitory activity, IC50 [2]: 0.0276 µg/mL
EC50 [3]: > 10 µg/mL
B1: hum20D7 (antibody, from another filing, V domains shown)
VH: QVQLVQSGAEVKKPGASVKVSCKASGYTFTNYAMNWVRQAPGQGLEWMGWINTYTGEPTYSDDFKGRVTFTLDTSTSTAYMELRSLRSDDTAVYYCARGGGYDEDYFDYWGQGTLVTVSS
VL: DIVMTQSPLSLPVTPGEPASISCKSSQSLFNTINQKTYLAWYLQKPGQSPQLLIYFASTRESGVPDRFSGSGSGTDFTLKISRVEAEDVGVYYCQQHYDTPWTFGQGTKVEIKR
